Target: 2A3-D NKT TCR βL95A, on 5KC hybridoma (mouse)
Experiment: flow cytometry on cells

## mouse CD1d tetramer loaded with α-galactosylceramide (αGC) (from UniProt P11609 22-336; P01887 21-119) (complex)
  reduction of tetramer binding against the wild type: 10%

From publication PMC3070541
